# Substitutions are numbered along the chain they refer to.
# B1: human Elongation Factor Like-1 (EFL1) (enzyme)
# chain: MVLNSLDKMIQLQKNTANIRNICVLAHVDHGKTTLADCLISSNGIISSRLAGKLRYMDSREDEQIRGITMKSSAISLHYATGNEEYLINLIDSPGHVDFSSEVSTAVRICDGCIIVVDAVEGVCPQTQAVLRQAWLENIRPVLVINKIDRLIVELKFTPQEAYSHLKNILEQINALTGTLFTSKVLEERAERETESQVNPNSEQGEQVYDWSTGLEDTDDSHLYFSPEQGNVVFTSAIDGWGFGIEHFARIYSQKIGIKKEVLMKTLWGDYYINMKAKKIMKGDQAKGKKPLFVQLILENIWSLYDAVLKKDKDKIDKIVTSLGLKIGAREARHSDPKVQINAICSQWLPISHAVLAMVCQKLPSPLDITAERVERLMCTGSQTFDSFPPETQALKAAFMKCGSEDTAPVIIFVSKMFAVDAKALPQNKPRPLTQEEIAQRRERARQRHAEKLAAAQGQAPLEPTQDGSAIETCPKGEEPRGDEQQVESMTPKPVLQEENNQESFIAFARVFSGVARRGKKIFVLGPKYSPLEFLRRVPLGFSAPPDGLPQVPHMAYCALENLYLLMGRELEYLEEVPPGNVLGIGGLQDFVLKSATLCSLPSCPPFIPLNFEATPIVRVAVEPKHPSEMPQLVKGMKLLNQADPCVQILIQETGEHVLVTAGEVHLQRCLDDLKERFAKIHISVSEPIIPFRETITKPPKVDMVNEEIGKQQKVAVIHQMKEDQSKIPEGIQVDSDGLITITTPNKLATLSVRAMPLPEEVTQILEENSDLIRSMEQLTSSLNEGENTHMIHQKTQEKIWEFKGKLEQHLTGRRWRNIVDQIWSFGPRKCGPNILVNKSEDFQNSVWTGPADKASKEASRYRDLGNSIVSGFQLATLSGPMCEEPLMGVCFVLEKWDLSKFEEQGASDLAKEGQEENETCSGGNENQELQDGCSEAFEKRTSQKGESPLTDCYGPFSGQLIATMKEACRYALQVKPQRLMAAMYTCDIMATGDVLGRVYAVLSKREGRVLQEEMKEGTDMFIIKAVLPVAESFGFADEIRKRTSGLASPQLVFSHWEIIPSDPFWVPTTEEEYLHFGEKADSENQARKYMNAVRKRKGLYVEEKIVEHAEKQRTLSKNK
# notes: human EFL1, GTPase, said to comprise 1120 residues; the expressed protein is fused to a TEV recognition site and a hexahistidine tag at the C-terminus; also called human EFL1; GTPase Elongation Factor Like-1; source: S. cerevisiae BCY123 (pRS426 backbone, GAL1/10 promoter), purified
# Tests used:
# Experiment in all cases: fluorescence polarisation; fluorescence anisotropy; 2 µL additions of 40-90 µM human EFL1 titrated into 300 µL of 0.1 µM Lumio Green-labelled human SBDS-FlAsH construct; 25 °C; 50 mM Tris-HCl pH 8, 300 mM NaCl, 5 mM β-mercaptoethanol; fitted to a single-site or a two different binding sites model
# Settings in all cases: both partners purified
# [1] = molecular target: T1, human SBDS domains 1-2 (residues 1-174) with C-terminal FlAsH tag, labelled with Lumio Green (human, UniProt Q9Y3A5 1-174, Lumio Green dye (4',5'-bis(1,3,2-dithioarsolan-2-yl) fluorescein) on the C-terminal FlAsH tag)
# T1 construct: human SBDS, domains 1-2, residues 1-174; also called construct consisting of domains 1-2 of SBDS; source: E. coli C41 (pRSET plasmid), purified by conventional chromatographic techniques; not shown: FlAsH tag (Cys-Cys-Pro-Gly-Cys-Cys), C-terminal, kept
# T1 sequence (looked up): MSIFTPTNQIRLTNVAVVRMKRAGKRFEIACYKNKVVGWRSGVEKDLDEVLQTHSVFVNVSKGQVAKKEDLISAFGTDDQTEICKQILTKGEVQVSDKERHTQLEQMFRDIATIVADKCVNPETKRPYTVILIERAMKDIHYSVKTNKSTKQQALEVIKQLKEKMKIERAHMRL
# [2] = molecular target: T2, human SBDS wild type with C-terminal FlAsH tag, labelled with Lumio Green (human, UniProt Q9Y3A5 1-250, Lumio Green dye (4',5'-bis(1,3,2-dithioarsolan-2-yl) fluorescein) on the C-terminal FlAsH tag)
# T2 construct: human SBDS, wild type, called the full-length protein; also called SBDS-FlAsH; Shwachman-Bodian-Diamond Syndrome protein; source: E. coli C41 (pRSET plasmid), purified by conventional chromatographic techniques; not shown: FlAsH tag (Cys-Cys-Pro-Gly-Cys-Cys), C-terminal, kept
# T2 sequence (looked up): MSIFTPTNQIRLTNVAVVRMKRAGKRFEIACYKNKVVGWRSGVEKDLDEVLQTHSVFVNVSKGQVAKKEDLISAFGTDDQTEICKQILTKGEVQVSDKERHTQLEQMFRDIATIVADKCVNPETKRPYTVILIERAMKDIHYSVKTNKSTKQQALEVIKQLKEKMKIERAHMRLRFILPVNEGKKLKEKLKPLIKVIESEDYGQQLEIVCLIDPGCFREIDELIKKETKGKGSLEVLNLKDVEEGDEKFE
# [3] = molecular target: T3, human SBDS R126T with C-terminal FlAsH tag, labelled with Lumio Green (human, UniProt Q9Y3A5 1-250, R126T, Lumio Green dye (4',5'-bis(1,3,2-dithioarsolan-2-yl) fluorescein) on the C-terminal FlAsH tag)
# T3 construct: human SBDS, SDS disease surface missense variant R126T (domain 2), in the three-domain protein; Missense variant found in patients; source: E. coli C41 (pRSET plasmid), purified by conventional chromatographic techniques; not shown: FlAsH tag (Cys-Cys-Pro-Gly-Cys-Cys), C-terminal, kept
# T3 sequence (looked up): T2 sequence (looked up) with R126T
# [4] = molecular target: T4, human SBDS K67E with C-terminal FlAsH tag, labelled with Lumio Green (human, UniProt Q9Y3A5 1-250, K67E, Lumio Green dye (4',5'-bis(1,3,2-dithioarsolan-2-yl) fluorescein) on the C-terminal FlAsH tag)
# T4 construct: human SBDS, SDS disease surface missense variant K67E (domain 1), in the three-domain protein; Missense variant found in patients; source: E. coli C41 (pRSET plasmid), purified by conventional chromatographic techniques; not shown: FlAsH tag (Cys-Cys-Pro-Gly-Cys-Cys), C-terminal, kept
# T4 sequence (looked up): T2 sequence (looked up) with K67E
binder,measurement,setting,value
B1,"Kd1 (first binding site, two different binding sites model)",[1],11.3 ± 1.8 µM
same,"Kd2 (second binding site, two different binding sites model)",[1],3.9 ± 0.2 µM
same,"Kd1 (first binding site, two different binding sites model)",[2],5.4 ± 1 µM
same,"Kd2 (second binding site, two different binding sites model)",[2],0.4 ± 0.04 µM
same,"Kd1 (first binding site, two different binding sites model)",[3],9.3 ± 1.7 µM
same,"Kd2 (second binding site, two different binding sites model)",[3],2.5 ± 0.2 µM
same,"Kd1 (first binding site, two different binding sites model)",[4],7.2 ± 2 µM
same,"Kd2 (second binding site, two different binding sites model)",[4],3 ± 1 µM
